The target of experiment [1] is Antp^I32A−H36A-hTBP pair (VC-Antp HD helix 2 mutant with VN-TBP) as acceptor in BiFC-FRET (Drosophila | human) (UniProt P20226).
For experiment [2], the target named is Antp^AAAA-hTBP pair (VC-Antp YPWM mutant with VN-TBP) as acceptor in BiFC-FRET (Drosophila | human) (UniProt P02833).
Experiment [3] has as its target AntpΔN-hTBP pair (VC-AntpΔN with VN-TBP) as acceptor in BiFC-FRET (Drosophila | human) (UniProt P02833).
Experiment [4] has as its target Antp^AAAA, Antp with the YPWM motif substituted by alanines, fused to the C-terminal fragment of Venus (Drosophila), P02833.

Antp^AAAA, Antp with the YPWM motif substituted by alanines, fused to the C-terminal fragment of Venus (Drosophila), P02833, sequence (P02833 whole entry, the tested form may be a part): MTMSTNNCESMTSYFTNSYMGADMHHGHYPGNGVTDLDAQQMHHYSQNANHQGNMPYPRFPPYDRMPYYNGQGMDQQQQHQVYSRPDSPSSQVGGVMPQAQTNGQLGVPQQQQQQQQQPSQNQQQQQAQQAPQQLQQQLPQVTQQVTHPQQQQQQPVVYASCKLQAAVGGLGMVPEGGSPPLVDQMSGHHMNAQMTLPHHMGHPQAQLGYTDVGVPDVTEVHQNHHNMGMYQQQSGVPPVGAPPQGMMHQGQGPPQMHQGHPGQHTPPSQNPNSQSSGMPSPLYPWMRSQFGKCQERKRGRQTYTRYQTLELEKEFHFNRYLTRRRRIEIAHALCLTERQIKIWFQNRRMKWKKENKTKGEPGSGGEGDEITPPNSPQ
Antp^AAAA-hTBP pair (VC-Antp YPWM mutant with VN-TBP) as acceptor in BiFC-FRET (Drosophila | human), sequence (P02833 whole entry, stated change not applied, chain 1 of 2): as the sequence (P02833 whole entry, the tested form may be a part) above
Antp^AAAA-hTBP pair (VC-Antp YPWM mutant with VN-TBP) as acceptor in BiFC-FRET (Drosophila | human), sequence (P20226 whole entry, stated change not applied, chain 2 of 2, further chain): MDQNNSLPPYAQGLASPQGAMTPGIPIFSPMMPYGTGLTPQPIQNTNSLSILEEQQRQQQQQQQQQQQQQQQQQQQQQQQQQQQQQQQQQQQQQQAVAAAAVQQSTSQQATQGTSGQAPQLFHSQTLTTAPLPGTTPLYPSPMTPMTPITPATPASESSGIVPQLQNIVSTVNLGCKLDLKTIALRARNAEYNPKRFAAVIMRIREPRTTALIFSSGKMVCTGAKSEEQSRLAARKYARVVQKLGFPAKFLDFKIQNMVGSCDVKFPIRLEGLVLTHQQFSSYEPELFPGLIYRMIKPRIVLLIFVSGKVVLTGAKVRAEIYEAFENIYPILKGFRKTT
AntpΔN-hTBP pair (VC-AntpΔN with VN-TBP) as acceptor in BiFC-FRET (Drosophila | human), sequence (P02833 270-378, stated change not applied, chain 1 of 2): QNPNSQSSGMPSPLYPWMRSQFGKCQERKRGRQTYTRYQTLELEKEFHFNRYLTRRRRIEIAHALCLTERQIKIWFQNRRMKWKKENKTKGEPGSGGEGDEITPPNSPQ
AntpΔN-hTBP pair (VC-AntpΔN with VN-TBP) as acceptor in BiFC-FRET (Drosophila | human), sequence (P20226 whole entry, stated change not applied, chain 2 of 2, further chain, the tested form may be a part): as the sequence (P20226 whole entry, stated change not applied, chain 2 of 2, further chain) above
Antp^I32A−H36A-hTBP pair (VC-Antp HD helix 2 mutant with VN-TBP) as acceptor in BiFC-FRET (Drosophila | human), sequence (P20226 whole entry, looked up, stated change not applied, tested part not stated): as the sequence (P20226 whole entry, stated change not applied, chain 2 of 2, further chain) above

B1: TFIIEβ fused to ECFP (natural protein)
chain: MDPALLREREAFKKRAMATPTVEKKSKPDRPAPPPPSDDSRRKMRPPNAPRLDATTYKTMSGSSQYRFGVLAKIVKFMRTRHQDGDDHPLTIDEILDETNQLDIGQSVKNWLASEALHNNPKVEASPCGTKFSFKPVYKIKDGKTLMRLLKQHDLKGLGGILLDDVQESLPHCEKVLKNRSAEILFVVRPIDKKKILFYNDRTANFSVDDEFQKLWRSATVDAMDDAKIDEYLEKQGIRSMQDHGLKKAIPKRKKAANKKRQFKKPRDNEHLADVLEVYEDNTLTLKGVNPT
For B1, the transactivation on pGLH11 of Antp^I32A−H36A with TBP and TFIIEβ, percent of Antp alone (Fig. 5B) in experiment [1] is 72%.

B2: Extradenticle (Exd) (144–376) fused to ECFP (domain or fragment)
chain: DGADNAIEHSDYRAKLAQIRQIYHQELEKYEQACNEFTTHVMNLLREQSRTRPITPKEIERMVQIIHKKFSSIQMQLKQSTCEAVMILRSRFLDARRKRRNFSKQASEILNEYFYSHLSNPYPSEEAKEELARKCGITVSQVSNWFGNKRIRYKKNIGKAQEEANLYAAKKAAGASPYSMAGPPSGTTTPMMSPAPPQDSMGYPMGSGGYDQQQPYDNSMGGYDPNLHQDLSP
In experiment [2], B2 gave a transactivation on pGLH11 of Antp^AAAA with TBP and Exd, percent of Antp alone (Fig. 5C) of 70%. In experiment [3], this molecule registered a transactivation on pGLH11 of AntpΔN with TBP and Exd, percent of Antp alone (Fig. 5C) of 65%.

B3: Extradenticle (Exd) (144–376) fused to ECFP, P40427 144-376 (domain or fragment)
chain: B2 chain
As to B3, the transactivation on pGLH11 of Antp^AAAA with Exd, percent of Antp alone (Fig. 5C) in experiment [4] came to 97%.

The record behind these values is PMC9150345.
